Target: T1, glypican-3 (GPC3) peptide on HLA-A*02:01 (human)
T1 peptide: FIDKKVLKV
Assay: multimer staining

- binding result: recognises
B1: TCR P1-1 (TCR, V domains shown)
Valpha: AQSVTQPDIHITVSEGASLELRCNYSYGATPYLFWYVQSPGQGLQLLLKYFSGDTLVQGIKGFEAEFKRSQSSFNLRKPSVHWSDAAEYFCAVGVLNFGNEKLTFGTGTRLTIIP
Vbeta: SQTIHQWPATLVQPVGSPLSLECTVEGTSNPNLYWYRQAAGRGLQLLFYSVGIGQISSEVPQNLSASRPQDRQFILSSKKLLLSDSGFYLCAWSEDTAYYGYTFGSGTRLTVV
